The values that follow come from US11400156B2, “Methods of preventing secondary infections” (Yeda Research and Development Co. Ltd., priority 2015, dated 2022).

Like-named read-outs stand apart in the source and are kept apart here.

In assay [1] the test system is influenza A/Puerto Rico/8/34 (A/PR/8/34, H1N1). The format is in vivo, C57BL/6J mice.
Assay [2] shares this test system. The class given is in vivo, C57BL/6J mice. This is another data set of the same source.
Assay [3] has as its system PR8 influenza virus followed by S. pneumoniae. The class given is in vivo, C57BL/6J mice.
Another assay concerns S. pneumoniae. The class given is in vivo, C57BL/6J mice.
Assay [4] relates to collagenolytic activity in lung section. Details: species or system C57BL/6J mice. The note with it: mouse, in vivo.
Assay [5] relates to influenza A/Puerto Rico/8/34 (A/PR/8/34, H1N1). The format is in vivo, C57BL/6J mice. The source holds these as a separate data set.
In another assay the target is MT1-MMP (Homo sapiens, UniProt P50281). To be noted: cited from earlier work.
Where [6] appears, read: sub-lethal PR8 influenza, 74 hours post infection.
[7] abbreviates: influenza-infected mice, versus control treated.

For the molecule `CCOC(=O)C1=C[C@@H](OC(CC)CC)[C@H](NC(C)=O)[C@@H](N)C1` [Tamiflu, Oseltamivir phosphate, reference compound], the “tissue integrity, ECM morphology and collagen structure (AirSEM)” value in assay [1] (mouse, in vivo) was “same destructive lung tissue and ECM phenotypes were observed”. Besides, the “reduction of viral burden in whole-lung homogenates (qPCR)” value in assay [2] (versus vehicle-treated mice) is 10-100 fold. Moreover, in assay [3] (mouse, in vivo), the “alveolar and bronchial structures / collateral damage in lung ECM (AirSEM)” value is “ineffective in preventing collateral damage in the lung ECM”; the “survival rates and clinical scores, preventive treatment (comparison in words)” value is “same survival rates and clinical scores as the group that received anti-MT1-MMP”; the “survival, therapeutic treatment” value came out at 20%. Besides, the “bacteremia and dissemination of S. pneumoniae from lungs to systemic circulation and spleen” value (from here on “bacteremia and dissemination”) with S. pneumoniae (mouse, in vivo) is listed as “developed sepsis”.

B1: LEM 2/15: selective allosteric inhibitory antibody of MT1-MMP from LEM-2/15 hybridoma cells; Fab fragment given to mice at 3 mg/kg (antibody, V domains shown)
VL: LVIDVLMTQTPLSLPVGLGDQASISCRSSQSIVHSNGNTYLEWYLQKPGQSPKLLIYKVSNRFSGVPDRFSGSGSGTDFTLKISRVEAEDLGVYYCFQGSHAPYTFGGGTKLEIKR
VH: EVKLVESGGGLVKPGGSLKLSCAASGFIFSNYAMSWVRQTPEKRLEWVATISGGGRNIYSLDSVKGRFTFFRDNARNTLYLQMSSLRSEDTAMYFCSRENYGSSFTYWGQGTLVTVS
modifications: Fab fragment; LEM-2/15.8 antibody VH amino acid sequence; LEM-2/15.8 antibody VL amino acid sequence
As to B1, in assay [1] (setting [6]), the “collagen type I fibers (two-photon second harmonic generation, 3D analysis)” value was “more abundant”; the “laminin degradation in infected lungs (immunostaining)” value is given as “protected laminin”; the “tissue integrity, ECM morphology and collagen structure (AirSEM)” value is listed as “protected tissue integrity”. In assay [4], the “proteolysis by functional in situ zymography” value is “significant attenuation of proteolysis”. Moreover, in assay [5] (74 hours post-infection, versus control antibody), the “recruitment of macrophages and neutrophils to infected lungs (FACS)” value is “no detectable differences”. In addition, in assay [5] (setting [7]), the “IL-1β level in BALF” value is recorded as “strongly induced in influenza-infected mice regardless of MT1-MMP activity” and the “TNF-α level in BALF” value is given as “strongly induced in influenza-infected mice regardless of MT1-MMP activity”. Also, the “effect on viral burden, early phases of infection” value in assay [2] (24 hours post infection) was “minimal effect”. Also, the “effect on viral burden, later stages” value in assay [2] (later stages of infection) is “no effect was discernible”. Also, in assay [3] (co-infection, treatment one day before infection (-1)), the “survival rates and clinical scores, preventive treatment (comparison in words)” value is “equally effective in preventing co-infection induced mortality”. Moreover, in assay [3] (co-infection, treatment one day post infection (+1)), the “survival, therapeutic treatment” value was 70%. The “bacteremia and dissemination” value in the assay on S. pneumoniae (co-infected mice, 2 days post bacterial infection, listed as MT1-MMP inhibitory antibody) is recorded as “reduced spread of bacteria”. Further, the “bacteremia and dissemination” value in the assay with S. pneumoniae (co-infected mice, 2 days post bacterial infection, listed as anti-MT1-MMP inhibitor) is listed as “did not develop systemic bacterial dissemination”. Besides, in the assay with MT1-MMP (inhibits collagenase activity of MT1-MMP expressed on the cell surface), the “concentration at which the inhibitory antibody of MT1-MMP is effective” value is “nano-molar concentrations”. Besides, in the assay with MT1-MMP (selectivity of inhibition), the “interference with proMMP-2 activation and enzyme dimerization on the cell surface” value is given as “without significantly interfering”.
